Like-named read-outs stand apart in the source and are kept apart here.
T1: His-tagged human TIGIT (human, UniProt Q495A1 22-141)
T1 construct: SPR analyte; also called human TIGIT protein; not shown: His tag
T1 sequence: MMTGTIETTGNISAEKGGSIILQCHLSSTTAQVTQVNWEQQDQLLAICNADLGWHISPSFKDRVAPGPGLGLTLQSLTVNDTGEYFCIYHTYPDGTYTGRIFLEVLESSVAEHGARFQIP

T2: human TIGIT expressed on CHO-K1 cells (human, UniProt Q495A1 22-244)
T2 construct: whole, on cells; also called human TIGIT-CHO-K1 cells; human TIGIT over-expressing cell line
T2 sequence (looked up): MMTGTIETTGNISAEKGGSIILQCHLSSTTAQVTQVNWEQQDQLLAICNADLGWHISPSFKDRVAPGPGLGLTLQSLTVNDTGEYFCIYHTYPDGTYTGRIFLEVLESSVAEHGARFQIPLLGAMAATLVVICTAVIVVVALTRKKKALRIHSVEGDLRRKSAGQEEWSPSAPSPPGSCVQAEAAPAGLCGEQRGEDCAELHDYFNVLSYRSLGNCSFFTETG

T3: TIGIT on TIGIT-over expressing NFAT-Luc/Jurkat effector cells (GenScript reporter cell line) (UniProt Q495A1 22-244, limits assumed)
T3 sequence (looked up): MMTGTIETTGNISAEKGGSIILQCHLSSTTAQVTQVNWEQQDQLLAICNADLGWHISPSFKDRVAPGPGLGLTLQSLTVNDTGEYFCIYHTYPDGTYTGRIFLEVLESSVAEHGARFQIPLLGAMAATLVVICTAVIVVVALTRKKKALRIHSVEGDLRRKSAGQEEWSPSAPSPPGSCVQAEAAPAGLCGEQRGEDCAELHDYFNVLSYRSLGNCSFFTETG


Experiments:
[1] = molecular target: T1, His-tagged human TIGIT; test: SPR experiment 4, IgG from HEK293 supernatant captured
[2] = molecular target: T4, cynomolgus TIGIT expressed on CHO-K1 cells (cynomolgus, UniProt A0A7N9I9V4 89-312); test: flow cytometry on CHO-K1 cells expressing cynomolgus TIGIT
T4 construct: whole, on cells; also called cynomolgus TIGIT over-expressing cell line
T4 sequence (A0A7N9I9V4 entry or part of it): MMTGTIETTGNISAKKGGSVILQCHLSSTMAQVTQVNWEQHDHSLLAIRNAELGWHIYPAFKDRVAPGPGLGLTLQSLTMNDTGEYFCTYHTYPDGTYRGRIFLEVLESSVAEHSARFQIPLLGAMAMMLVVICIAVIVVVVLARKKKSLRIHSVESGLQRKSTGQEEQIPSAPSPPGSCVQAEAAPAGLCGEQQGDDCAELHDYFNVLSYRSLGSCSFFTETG

[3] = molecular target: T2, human TIGIT expressed on CHO-K1 cells; test: flow cytometry competition: biotinylated CD155-Fc on human TIGIT-CHO-K1 cells
[4] = molecular target: T2, human TIGIT expressed on CHO-K1 cells; test: flow cytometry on CHO-K1 cells expressing human TIGIT
[5] = molecular target: T1, His-tagged human TIGIT; test: SPR (Biacore T200), antibody captured, His-tagged TIGIT analyte
[6] = molecular target: T5, His-tagged cynomolgus TIGIT (cynomolgus, UniProt A0A7N9I9V4 89-209); test: as above
T5 construct: SPR analyte; also called cynomolgus TIGIT protein; not shown: His tag
T5 sequence (A0A7N9I9V4 entry or part of it): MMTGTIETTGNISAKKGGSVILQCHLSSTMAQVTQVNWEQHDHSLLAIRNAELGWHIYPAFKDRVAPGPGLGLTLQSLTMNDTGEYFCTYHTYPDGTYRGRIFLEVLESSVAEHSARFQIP

[7] = molecular target: T3, TIGIT on TIGIT-over expressing …; test: cell-based or functional assay
[8] = molecular target: T4, cynomolgus TIGIT expressed on CHO-K1 …; test: flow cytometry on CHO-K1 cells expressing cynomolgus TIGIT; remark: listed apart in the source
[9] = molecular target: T2, human TIGIT expressed on CHO-K1 cells; test: flow cytometry competition: biotinylated CD155-Fc on human TIGIT-CHO-K1 cells; remark: listed apart in the source
[10] = molecular target: T3, TIGIT on TIGIT-over expressing …; test: cell-based or functional assay; remark: listed apart in the source
[11] = molecular target: T2, human TIGIT expressed on CHO-K1 cells; test: flow cytometry on CHO-K1 cells expressing human TIGIT; remark: listed apart in the source
[12] = molecular target: T1, His-tagged human TIGIT; test: SPR (Biacore T200), antibody captured, His-tagged TIGIT analyte; remark: listed apart in the source
[13] = molecular target: T5, His-tagged cynomolgus TIGIT; test: as above; remark: listed apart in the source
[14] = molecular target: T1, His-tagged human TIGIT; test: SPR experiment 1, IgG from HEK293 supernatant captured
[15] = molecular target: T1, His-tagged human TIGIT; test: SPR experiment 2, IgG from HEK293 supernatant captured

Binder | EC50 [2] [nM] | IC50 [3] [nM] | EC50 [4] [nM] | Kd [5] [nM] | koff [5] [s⁻¹] | kon [5] [M⁻¹ s⁻¹] | Kd [6] [nM] | koff [6] [s⁻¹] | kon [6] [M⁻¹ s⁻¹] | Bottom (RLU) [7] [RLU] | EC50 [7] [nM] | Top (RLU) [7] [RLU] | further results
reshaped TIGIT-3 antibody 3VH3.M4 + 3VL5.M6 (antibody, V domains shown, Full-length IgG, tested as HEK293 supernatant) VH: EVQLVESGGGLVQPGGSLRLSCAASGFTFSSYGMSWVRQAPGKGLELVATIKSSGGSTNLADSVKGRFTISRDNSKNTLYLQMNSLRAEDTAVYYCVRGYFDYWGQGTTVTVSS VL: DIQMTQSPSSLSASVGDRVTITCRASQDIKTALAWYQQKPGQSPKLLIYWASTRQSGVPSRFSGSGSGTDFTLTISSLQPEDVATYYCQQYYSTPYTFGGGTKVEIK | – | – | – | – | – | – | – | – | – | – | – | – | Kd [1]: 0.5 nM; koff [1]: 0.00043 s⁻¹; kon [1]: 870000 M⁻¹ s⁻¹
TIGIT-94 chimeric antibody (antibody, human IgG1, kappa, V domains shown, Full-length chimeric IgG1 kappa) VH: EVKLVESGGGLVKPGGSLKLSCAASGFTFSTYTMSWVRQTPEKRLEWVATISSGGTYTHYPDSVKGRFTISRDNAKNTLYLQMSSLKSEDTAMYYCTRWFLSLYAMDYWGQGTSVTVSS VL: DIVMTQSTSSLSASLGDRVTISCRASQDINNFLNWYQQKPAGTVDLLIYYTSRLHSGVPSRFSGSGSGTDYSLTISNLDQEDIATYFCQQGNTFPYTFGGGTRLEIKR | 0.74 | 0.72 | 0.51 | 1.6 | 0.0019 | 1.2e+06 | 7.7 | 0.0075 | 980000 | 9960 | 92.8 | 59800 | –
TIGIT-15 chimeric antibody (antibody, human IgG1, kappa, V domains shown, Full-length chimeric IgG1 kappa) VH: DVQLVESGGGLVQPGGSLKLSCAASGFTFSSYGMSWVRQTPDRRLELVATINNNGGSTYYPDSVKGRFTISRDNARNTLYLQMSSLKSEDTAMYYCATRTGTEILGFDFWGQGTTLTVSS VL: DIVLTQSHKFMSTSLGDRVSITCKASQDVSTAVAWYQQKPGQSPKLLIYWASSRHTGVPDRFTGSRSGPDYTLTISSVQAEDLALYYCQQQYSTPWTFGGGTKLEIKR | 3.53 | 1.07 | 1.03 | 0.19 | 0.00016 | 860000 | 1.1 | 0.0002 | 180000 | 7720 | 17.4 | 51900 | –
TIGIT-63 chimeric antibody (antibody, human IgG1, kappa, V domains shown, Full-length chimeric IgG1 kappa) VH: DVQLVESGGGLVQPGGSLSLSCAASGFTFTDYYMNWVRQPPGKALEWLGFIRNKANGYTTEYSASVKGRFTISRDNSQSILYLQMNALRAEDSATYYCARSTAWYFDVWGTGTTLTVSS VL: DIQMTQSPASLSASVGGTVTITCRASEHIYSYLAWYQQKQGKSPQLLVYNAKTLAEGVPSRFSGSGSGTQFSLKINSLQPKDFGSYYCQHHYGNPLTFGAGTKLELKR | 1.92 | 2.32 | 1.12 | 2.5 | 0.00062 | 250000 | 3.4 | 0.00049 | 140000 | 11200 | 46.8 | 28700 | –
TIGIT-87 chimeric antibody (antibody, human IgG1, kappa, V domains shown, Full-length chimeric IgG1 kappa) VH: EVKLVESGPELVKPGASMKISCKASGYSFTGYTMNWVKQSHGKNLEWIGLINPYNGGTSYNQKFKGKATLTVDKSSSTAYMELLSLTSEDSAVYYCARYANRFENWFAYWGQGTLVTVSS VL: DIQMTQSPASLSASVGETVTITCRASENIYSYLAWYQQKQGKSPQLLVYNAKTLAEGVPSRFSGSGSGTQFSLKINSLQPEDFGSYYCQHHYGTPWTFGGGTKLEIKR | 0.81 | 0.53 | 0.4 | 0.63 | 0.0012 | 2e+06 | 47 | 0.063 | 1.3e+06 | 9300 | > 100 | 17000 | –
4.1D3 (anti-TIGIT positive control antibody) (antibody, V domains shown) VH: QVQLQQSGPGLVKPSQTLSLTCAISGDSVSSNSAAWNWIRQSPSRGLEWLGKTYYRFKWYSDYAVSVKGRITINPDTSKNQFSLQLNSVTPEDTAVFYCTRESTTYDLLAGPFDYWGQGTLVTVSS VL: not shown | 2.77 | 1.4 | 0.95 | 0.065 | 4.3e-05 | 660000 | 5.4 | 0.0011 | 200000 | 12600 | 9.28 | 44200 | EC50 [8]: 2.35 nM; IC50 [9]: 0.95 nM; Bottom (RLU) [10]: 55300 RLU; EC50 [10]: 9.69 nM; Top (RLU) [10]: 142000 RLU; EC50 [11]: 1.05 nM; Kd [12]: 0.055 nM; koff [12]: 3.5e-05 s⁻¹; kon [12]: 630000 M⁻¹ s⁻¹; Kd [13]: 3 nM; koff [13]: 0.00083 s⁻¹; kon [13]: 270000 M⁻¹ s⁻¹
TIGIT-6 chimeric antibody (antibody, human IgG1, kappa, V domains shown, also called 6VH + 6VL) VH: QVQLKQSGPELVKPGASVKISCKTSGYTITENTMHWVKQSHGKSLEWIGGINPNNGGTSYNQQFKGKATLTVDKSSSTAYMELRSLTSEDSAVYYCTRSSYYRYDLDYWGQGTTVTVSS VL: DIQMTQSHKFMSTSVGDRVSITCKASQDVKTALAWYQQKPGQSPKLLIYSASYRYTGVPDRFTGSGSGTDFTFTISSVQAEDLAVYYCHQHYTTPWTFGGGTKLEIKR | 2.64 | 0.57 | 0.42 | 0.24 | 0.00013 | 560000 | 54 | 0.0049 | 90000 | 10900 | 9.42 | 49800 | EC50 [8]: 2.31 nM; IC50 [9]: 0.566 nM; Bottom (RLU) [10]: 51400 RLU; EC50 [10]: 4.9 nM; Top (RLU) [10]: 139000 RLU; EC50 [11]: 0.581 nM; Kd [12]: 0.17 nM; koff [12]: 9e-05 s⁻¹; kon [12]: 520000 M⁻¹ s⁻¹; Kd [13]: 39 nM; koff [13]: 0.0046 s⁻¹; kon [13]: 120000 M⁻¹ s⁻¹; Kd [14]: 0.094 nM; koff [14]: 5.3e-05 s⁻¹; kon [14]: 560000 M⁻¹ s⁻¹; Kd [15]: 0.29 nM; koff [15]: 0.00012 s⁻¹; kon [15]: 420000 M⁻¹ s⁻¹

Reference: patent US20260139048A1 (NANJING LEGEND BIOTECH, published 2026)
